Laboratory results reported in paper doi:10.1101/2020.06.17.157982.

These substances were tested against biotinylated human ACE2 ectodomain, which contains its natural dimerization domain (ACROBiosystems AC2-H82E6) (human) (UniProt Q9BYF1) (assay: FACS).
Sequence of biotinylated human ACE2 ectodomain, which contains its natural dimerization domain (ACROBiosystems AC2-H82E6) (human) (Q9BYF1 18-740): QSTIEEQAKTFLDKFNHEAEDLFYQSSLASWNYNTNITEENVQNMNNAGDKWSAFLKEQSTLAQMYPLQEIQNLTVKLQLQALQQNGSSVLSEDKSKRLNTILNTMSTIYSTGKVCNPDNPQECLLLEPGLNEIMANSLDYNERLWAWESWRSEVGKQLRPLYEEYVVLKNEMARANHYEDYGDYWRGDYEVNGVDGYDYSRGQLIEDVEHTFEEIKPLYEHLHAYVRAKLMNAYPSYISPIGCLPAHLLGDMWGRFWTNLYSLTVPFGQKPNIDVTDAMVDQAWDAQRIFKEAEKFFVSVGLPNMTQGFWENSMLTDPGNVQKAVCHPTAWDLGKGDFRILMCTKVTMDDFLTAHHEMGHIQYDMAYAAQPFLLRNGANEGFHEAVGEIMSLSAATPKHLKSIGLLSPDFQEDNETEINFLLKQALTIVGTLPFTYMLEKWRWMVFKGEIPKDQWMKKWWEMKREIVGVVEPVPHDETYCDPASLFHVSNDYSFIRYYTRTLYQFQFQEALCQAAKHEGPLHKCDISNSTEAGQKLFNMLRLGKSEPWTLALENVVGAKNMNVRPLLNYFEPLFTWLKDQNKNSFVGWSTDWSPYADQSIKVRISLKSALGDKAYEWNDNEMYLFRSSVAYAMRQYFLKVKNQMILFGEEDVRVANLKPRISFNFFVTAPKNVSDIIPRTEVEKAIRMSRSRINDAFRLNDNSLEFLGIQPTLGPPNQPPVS

Row | Substance | Kd
1 | WIV1 RBD, yeast-displayed | 0.017 nM
2 | ZC45 RBD, yeast-displayed | > 1000 nM
3 | ZXC21 RBD, yeast-displayed | > 1000 nM
